Measurements taken from patent US20220362348A1, “LACTOFERRIN, DERIVED PEPTIDE THEREOF AND METHOD THEREOF FOR INHIBITING AND/OR ALLEVIATING LIPID SYNTHESIS” (RENORIGIN INNOVATION INSTITUTE CO., LTD., priority 2021, published 2022).

Tested on: Human sebocytes
Test: Neutral fat detection (Nile red staining, fluorescence intensity) in linoleic acid-induced sebocytes
Assay type: cell-based
Settings: for fluorescence intensity (lipid content, Nile red): FIG. 1 D, two days, negative control about 1.0
Protocol: Human sebocytes (Cat. No. 36079-01, Celprogen, Torrance, Calif., USA) were cultured in Dulbecco's Modified Eagle Medium (DMEM): Nutrient Mixture F-12 (DMEM/F12) purchased from Thermo Fisher Scientific Limited (Barrington, Ill., USA), 10% fetal bovine serum (FBS) purchased from Gibco, Grand Island, N.Y., USA and penicillin/streptomycin (100 IU/50 […]), incubated at 37° C. in the 5% CO2 atmosphere.
Human sebocytes were implanted in 24- or 96-well plates. After 24 hours of culture, the cells were divided into a negative control group, a positive control group and an experimental group. […] The treated human sebocytes were cultured for two days. Human sebocytes were fixed with 4% formaldehyde at room temperature. After 60 minutes of fixation, the cells were washed with PBS and stained with Nile Red solution (1 μg/ml in PBS) at 37° C. for 15 minutes. Next, the cells were washed and observed under a fluorescent microscope. Fluorescence intensity is measured with fluorometer Spectra Max i3.

B1: lactoferrin (protein)
chain: APRKNVRWCTISQPEWFKCRRWQWRMKKLGAPSITCVRRAFALECIRAIAEKKADAVTLDGGMVFEAGRDPYKLRPVAAEIYGTKESPQTHYYAVAVVKKGSNFQLDQLQGRKSCHTGLGRSAGWIIPMGILRPYLSWTESLEPLQGAVAKFFSASCVPCIDRQAYPNLCQLCKGEGENQCACSSREPYFGYSGAFKCLQDGAGDVAFVKETTVFENLPEKADRDQYELLCLNNSRAPVDAFKECHLAQVPSHAVVARSVDGKEDLIWKLLSKAQEKFGKNKSRSFQLFGSPPGQRDLLFKDSALGFLRIPSKVDSALYLGSRYLTTLKNLRETAEEVKARYTRVVWCAVGPEEQKKCQQWSQQSGQNVTCATASTTDDCIVLVLKGEADALNLDGGYIYTAGKCGLVPVLAENRKSSKHSSLDCVLRPTEGYLAVAVVKKANEGLTWNSLKDKKSCHTAVDRTAGWNIPMGLIVNQTGSCAFDEFFSQSCAPGADPKSRLCALCAGDDQGLDKCVPNSKEKYYGYTGAFRCLAEDVGDVAFVKNDTVWENTNGESTADWAKNLNREDFRLLCLDGTRKPVTEAQSCHLAVAPNHAVVSRSDRAAHVKQVLLHQQALFGKNGKNCPDKFCLFKSETKNLLFNDNTECLAKLGGRPTYEEYLGTEYVTAIANLKKCSTSPLLEACAFLTR
modifications: bovine lactoferrin
lipid content reduced compared with positive control group (LA) (FIG. 1, 0.1 mM LA + 100 to 400 μg/mL lactoferrin): 25%
fluorescence intensity (lipid content, Nile red) (0.1 mM LA + 100 μg/mL lactoferrin): about 1.5
fluorescence intensity (lipid content, Nile red) (0.1 mM LA + 200 μg/mL lactoferrin): about 1.5
fluorescence intensity (lipid content, Nile red) (0.1 mM LA + 400 μg/mL lactoferrin): about 1.5
concentration dependence of inhibition of LA-induced lipid content (FIGS. 1-4, lactoferrin 100-400 μg/mL, peptides 25-100 μg/mL): dose-dependent manner
